Laboratory results as given in the DeepSol protein solubility set.

Assay: soluble on expression in E. coli; label from the status in PepcDB or PDB records

Sequence | soluble on expression in E. coli
MSQLVECVPNFSEGNNQEVIDAISQAISQTPGCVLLDVDAGPSTNRTVYTFVGQPECVVEGALSAARTASQLIDMRKHKGEHPRMGALDVCPFIPVRGVSMDECVLCAKAFGQRLAEELNVPVYLYGEAAQMPSRQTLPAIRAGEYEALPEKLKQAEWVPDFGPSSFVPSWGATVTGARKFLIAFNINLLSTKEQAHRIALNLREQGRGKDQPGRLKKVQGIGWYLEEKNLAQVSTNLLDFEVTALHTVYEEARREAQELNLPVVGSQLVGLVPLKALLDAAAFYCDKEKLFVLEEEHRIRLVVNRLGLDSLAPFDPKERIIEYLVPDSGPEQSLLDASLRAFVREVGARSAAPGGGSVAAAVAALGAALASMVGQMTYGRRQFDHLDSTMRRLIPPFHAASAQLTSLVDADARAFAACLGAIKLPKNTPEERDRRTCALQEGLRQAVAVPLKLAETVSQLWPALQELAQCGNLSCLSDLQVAAKALETGVFGAYFNVLINLKDMTDDVFKEKTRHRISSLLQEAKTQAALVLGSLEARKE | soluble
MGSDKIHHHHHHMTIMILREIIDELSYQLKQRRIINVCVSPAYTSVMLDDQSIGISHTITDGEIEGAGEIIGKNAYDVVINNLDSNLQRSLSLAILNALGSMIDFTQGDPINLYSGGKLCVFGFSPQLSYSNFDSVIVYDFMSTENKKVGNTEIKPYSSLSREVCSTALIFASSIVNNTIDRIISQISANHLILTGISSVDAPITLKNHGFEVLGKLFPVEKYRVFRTICEGGSNKLLSKYIMRYFKKL | not soluble
MMIEPKEKASIGIIGGSGLYDPQILTNVKEIKVYTPYGEPSDNIILGELEGRKVAFLPRHGRGHRIPPHKINYRANIWALKSLGVKWVIAVSAVGSLRLDYKPGDFVVPNQFIDMTKGRTYTFFDGPTVAHVSMADPFCEHLRSIILDSAKDLGITTHDKGTYICIEGPRFSTRAESIVWKEVFKADIIGMTLVPEVNLACEAEMCYSVIGMVTDYDVFADIPVTAEEVTKVMAENTAKVKKLLYEVIRRLPEKPDERKCSCCQALKTALVLEHHHHHHHH | soluble
ELALWSPEVKIVELVKDCKGLGFSILDYQDPLDPTRSVIVIRSLVADGVAERSGGLLPGDRLVSVNEYCLDNTSLAEAVEILKAVPPGLVHLGIC | soluble
GPGSMAPALCFTCMQPSRWTREGLPLILPLFQHLSPLSPFPNPSCNGISMCCTHTHTHTHTHTHTHTHAHTRLHLFQRFCFVNAIDFYELGAKSTRRVHGKVIIAARSRAPAMPPPAAAVSSSPSSSAAPMAVVYVRRDGRTALELRGKEMKLSDMTTFDGSSWYAQGQTAVMVSIHGPTIAKNDEYDTCIVQVRIQHAGVLAPAAGGAEKALYEERKLELLTRTDALALGSLLESTLNAVFLRERFPRCVLVVDVIVVRDDGSLPAVALNAVMSALLDAGLPCRTTMAAVCVAVLTHDGGADSNSGPAPDRHSSVEGSSSAGSVYEYLLDPTSAEESLGVGYAVPASSAAEKAAVTGASSVATSSAAPMSLRGGNAAQQVQGQYRCVSTGVFAFSNPACGGGLLAQLVRSVGSGSAEMCGPGVSVQAYAEMVALAERASAVLFEFFRQCNVAE | not soluble
MAGDPMKLQKSNHTILLVLEKGEDIVECITTFADDQDLTFTSVSGIGACDDVVLKFFNLTTKQYEEKHITEPLELTSLLGNISRLDNGHFAHLHATFGTQSYETFSGHLAKAIVSATAEIILTVTDLDIQRSFKDAVGLNLLDPQLEHHHHHH | soluble
MRMIPIKIWAADVDVSIGYRAPRAASNTLGIFSYSAEYTLCTLPISNMTSQSVMFKGGLPADCTCPICEQALRDPIKLNCDHHYCRQCFENENRTPGCAACQTIIQPELCQHDRAKQKQILALPVVCTFESSGCPWDGQLGTLHDHLSECTFKSSLKCEKCGRQFAKNDLEKHRAKCELNRAVCSFCNKTIRDSDRERHPKTCPQVIISCPFQCGLTDRPRLEIEAHCPSCPNVDNVCPFVPYGCTFAGGKESIQQHLSDEPVRHLMYLCDEITDLKGTYELMERDMGSFNDRQTRILSAAETCTEMFGPQLIWKIDKLQQRTNEAKSGADTTIFSVPFMSHRFGYKMMACACLFGDGSSAGKSISLYVLLLKGEFDPTLEWPFHRAIKISLLDQNPRPEDRVNITYVIDPRKLKANEKFLARPRGERNAAFGSQSFCSLAILQNYVKDDKIYVQIDVDRCETLPVQLKSRDAKERKQMLDAMRAKTPDVRLHQVRPVTSQSSSAELRV | not soluble
MKESLLTLTEKIMFTTTVLKPTITTPITMLITTMRTLVAMKIRHYWKMMAIKDRKIQIPPVKYQMELSIRTLEINLLKNVKETEANLLKRRTDRENKRHYEFGFFYNLRIHNIYIPTSFFFFNSIV | soluble
MGSDKIHHHHHHMNVENQTPNVDHQEIAKFEAIASRWWDLEGEFKPLHRINPLRLGYISQRAEGLFGKKVLDVGCGGGILAESMAREGADVTGLDMGAEPLQVARLHALESGVTVDYVQETVEAHADAHSGLYDVVTCMEMLEHVPDPQSVVQACAKLVKPGGHVFFSTINRNAKAWMMAVIGAEYILKMVPRGTHDIKKFIRPAELMRWVDDTPLRERHITGLHYNLLTDRFKLGPNVDVNYMLHTSHDKQC | not soluble
MKVVLATGNPGKVRELKEGLAPLGWTLLTLADFALRMPKEEGATFLENALLKAAYVAKATGLPALADDSGLEVYALGGEPGVYSARYGGRATDRERNVYLLERMRHLKGEERKARFVAVLVLAYPDGHAEAYEGSVEGVILEAPRGEGGFGYDPLFYVPEAGKTFAEMGLEEKARYSHRGKALRALLEAYKDGPPPREVSKLE | soluble
MGSDKIHHHHHHMTVMNAYQELESQGLIYSKEKSGYFVAEQIALKPLEQYSIVSLNSKIEINSLVFKYLKSIQHESVVPFGSAFPDSQLLAAPKLIQIMGQLARQRQSYDQTASLPPGNLALRKLIAQRYCMQGIQTDPDDIVITSGGLDALNLSLQAVAKPGDYILLQQTVFYGAWQAAERLGLKVITIPEHPQHGFDLEAFEQVIHTYPIKVCWLMLNSHNPIGFTVSDEIKYKIAKLLHEHQIYLIEDDVYEELYYGGQKPLSMKYFDQQNLVLHCSSFSKTLGAGFRVGWVYAGKFSDHIQHLQLMSTISVNALIQNALVEFLSHHHYEKHLRTLRLSLERYKKQFYHYLKQHLPAICEIYYYPSGYFLWVKLPHKLDSMQIYEELIQQDIGVAPSPLFSVLPAQQHYLRINCSFEWNEKIQAALDQVIKTIQQRVEASL | not soluble
MGSDKIHHHHHHSNKKTVDPNPVVRDNIIHLSTAIKNVREEMMLSELVDSVSYIPLETNPNCMLGNYQRLTFSPQYIFYSNYCFDWNGQFLFRIGSQGQGACEDIYVHVADIVYLNNHFYGNASKIIEYDDRGKCTGKELSWFTQKTMDTAPVGHLVNQVCFAPAGENLMFYNFPDTVYFINTDYEFVAKRSMMPWGRKGGAPSMSGGDPRFKYTSYYKDTTLFYNFYTDTVFTVTPTSLMPRWVVELDEELRFPTRYLYEDGLLSEAFKCWESGNLENAKMIKLLDHKYMVSGVFETERFVFLSVYECMPFRELRKLPETPPLTAIYNKRTGETFAVKQVVDDLGGMKAFFPSWGAYNEKLLATIWPYKLKEFIEEEQSAGRTVAPQILNLMQRVREDDNPVLIIAHLKK | not soluble
AEVEHYEPLQVHVQLEKVYLDGDVSIEHKHEKVFSMDDFWAAYAGWTLVEQKKGYVLFRKQMDDISPLSKVNGYIGVSDNGVISTFHGRPEPASEPIQSFFQIDLERLESHMQKNLLKGIPFRTKAEFEDVIEHMKTYSG | soluble
MSLTFEEKLSQMYNEIANEISGMIPVEWEKVYTIAYVDDEGGEVVFNYTKPGSEDLNYYSDIPKDCNVSKDIFKNSWFKVYRMFDELRETFKKEDLEPWTSCEFDFTRKGNLKVSFDYIDWIKLGFGPSGKENYYMYKKFGILPDMEYEMEEIRAVEKYVKEEGHHHHHH | soluble
MSELFSNDNIFLNVNVNSQNEAIEKAGKALVDSGAVTDAYIQAMKDREQVVSTFMGNGLAIPHGTDEAKTNVIHSGLTLLQIPEGVDWDGEVVKVVVGIAGKDGEHLDLLSKIAITFSEEENVDRIVQAKSAEEIKQVFEEADA | not soluble
SLSRYLLTDSPAVCVLSGERGVGTTTVLKRILNKTKNAVPIYINCPYDGYAALLPELAQLLGLDAESSEKDILQHLRNSEQCYLIAFDNAQRLVKPKVNGLVELMKLTNLLRRARKSHRVVLSIDKSSWRFIDRARGERLLFDLVTFMP | not soluble
MSLTKEEMRNAILDIFQSNPQSVMNYKQVSHLMGVEAAPQKLMVNSLMEDMAVDDILHEIERGRYRYNALGLIVIGTFERRFNGRNSFIPEGGGTPIFIAERNSAHAMDGDKVKVQLFAKRRGRAPEAAVIEIIEQKQATFVGKIQINRDFAFLVTEDRTLANDIFIPKDNLGNAKNGDKVIVRILEWPEQSKNPIGEVQAVLGPAGDNDAEMNAILAEFGLPYVYPQEVEEAADRLDGKITEEELARREDFRSILTFTIDPKDAKDFDDAISFRPLEDDCYEVGVHIADVSHYVTEGGIIDQEAYNRATSIYLVDRTIPMLPERLCNDLCSLRPDEEKYAYSCIFRMNDEAKVLDYRICHSVIKSDRRFAYEEAQAVIETGEGDCKEAILKLNELAQRLRKERFQNGAIAFERKEVRFEIDEKGRPLGVIVKESKEANKLIEEFMLLANRTVARHIGEETQGKRAKTFVYRIHDLPDPDKLETLSDFIRRFGYKLRTTGSNVEVSKSINSLLDNIQNKPEENLISTVAIRSMAKAIYSTDNIGHYGLAFDFYTHFTSPIRRYPDLMVHRLLTKYLSGGSSVDKNDYEEKCKHSSAMEQLAASAERASIKYKQVEFMSEHLGKVFDGVISGVTEWGLYVELKENMCEGLIPIRCLDDDYYEYDDKNFCLIGRRYRHRYSLGDAITVRVAQANLDRKQLDFEPVSEGHHHHHH | soluble
MAHHHHHHMLGSGKSSGVVNEASNLKANQNLTSAIEEMNTKEYIRNRDLNDVVPTHRRQVEAMMNKGNNNNGKVGLPAYDPAAEKEKERKERGQTHIEDRNDSDDDGELEELRKRRMAQMQQHHAKVAEWRQKQHGQYREISQDEFFSIVVREKGGSDDVCVHFYHKDFETCRVMDSRLLELSRMMLSVKFVKIDAEKSPFLVERLHIKTLPCCVLFHNDVAVDRIYGFEGCIGEDGLLDKELLGERILRAVNCKQEECE | soluble
MDLFPVLKELAQKTPSKILLIVLDGVGGLPLEPGGPTELEAAKTPNLDRLAEESALGLLTPVYPGLAPGSGPGHLALFGYDPFRYVVGRGALSALGLGADFREGDVALRGNFATLDPEGKVVDRRAGRPPTEENQRVIAKLKEAIPRIEDVEVLFYTESEHRFLVILRGEGLEDKVTDTDPQKTGLPPLKAKALDEASERTARLVNLLSERIREVLKDEPRMNGALFRGASKKPSFPRMQEVYKLTPAAIASYPMYKGLASLVGMEVLPVEGEGDALEGKLKALKENWGRYDFFYFHVKKTDAMGEDGNFHGKVEKVELFDALLPEILALGPDVLAITGDHSTPALLKAHSWHPVPLLLKAPYLRADEARRFTEREAQRGSLGHLRGVELMPLLLAHAGKLLKYGA | soluble
MATIRDVAKRAGVSVATVSRVLNQNGYVNEETERRVRQAMKELNYKPNEVARALFKKTSKTVGLIVPDITNPFFPELVRAVEDVMNIYDYTVILCNSDEKVEKEREYIEVLKQKYVDGVILTTNQFAPEEVEEWDVPIVVLDRPLHERYPSVVADNYEGARLATRHLYEVGCRRIAHIQGPNHVVNAMERFRGYQDEMRALGLGDRQLVIQGNYQLKQAKEAVMAALAEHDMDGIFAGNDAMAVGALKAVQQCGLRVPDDIAIIGYDGIPLTEMTTPELSTVSQPIYEMGAMAARILIKQIEGKPLEKLHYQLPVQLVVRQSTSRRGLT | soluble
